Data on one molecule can be found in paper PMC8519427, “High affinity associations with α-SNAP enable calcium entry via Orai1 channels” (PLoS ONE, 2021).

The target of the assay is T1, human α-SNAP with an Avitag and a C-terminal 6xHis tag (human, UniProt P54920 1-295, biotin (in vitro biotinylated using BirA ligase; Avitag)).
T1 construct: alpha-soluble NSF attachment protein (α-SNAP), human, amplified from HEK 293 cDNA; The methods describe a single preparation; The biotinylated protein was captured on streptavidin tips for BLI; also called biotinylated α-SNAP; Avi-Tagged human α-SNAP; source: E. coli LEMO21(DE3), pET28b, purified; in vitro biotinylated with BirA ligase; not shown: Avitag, C-terminal, kept
T1 sequence (looked up): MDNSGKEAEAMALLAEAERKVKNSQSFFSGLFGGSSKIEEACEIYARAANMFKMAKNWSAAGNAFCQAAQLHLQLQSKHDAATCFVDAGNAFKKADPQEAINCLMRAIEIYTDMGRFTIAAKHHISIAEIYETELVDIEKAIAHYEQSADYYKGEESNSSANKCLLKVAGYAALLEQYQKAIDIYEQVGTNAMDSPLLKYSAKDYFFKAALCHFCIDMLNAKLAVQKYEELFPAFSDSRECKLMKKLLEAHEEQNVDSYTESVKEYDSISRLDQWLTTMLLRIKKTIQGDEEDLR
Nature of the assay: pull-down; MBP- or GST-tagged Stim1 or Orai1 fragments immobilised on amylose or glutathione resin, incubated with 20–50 nM α-SNAP in Ringer's buffer with 0.1% NP-40 and 2 mM imidazole, 1 hr at 4°C; washed thrice; Western blot for α-SNAP. The settings on record: both partners purified. On the technique in general: Immunoblotting shows a protein as a band on a membrane.

B1: MBP-Stim1 408–442 (CC3 domain) (domain or fragment, human, UniProt Q13586 408-442, looked up)
chain: KILTAKQALSEVTAALRERLHRWQQIEILCGFQIV
notes: Cloned into pMAL-c5X in frame with MBP; also called Stim1-CC3; source: E. coli LEMO21(DE3), purified by immobilizing on amylose resin
Take B1: the binding result is given as “binds”.
